From patent US20230118024A1 (Chugai, published 2023)

T1: recombinant HLA-DQ2.5/33mer gliadin peptide complex (human; wheat)
T1 construct: also called soluble HLA-DQ2.5/33mer gliadin peptide complex
T1 alpha: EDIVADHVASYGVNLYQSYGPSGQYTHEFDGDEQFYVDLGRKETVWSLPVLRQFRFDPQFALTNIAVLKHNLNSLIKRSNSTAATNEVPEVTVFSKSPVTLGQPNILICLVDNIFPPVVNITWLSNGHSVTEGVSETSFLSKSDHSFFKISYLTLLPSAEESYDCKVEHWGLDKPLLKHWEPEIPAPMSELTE
T1 beta: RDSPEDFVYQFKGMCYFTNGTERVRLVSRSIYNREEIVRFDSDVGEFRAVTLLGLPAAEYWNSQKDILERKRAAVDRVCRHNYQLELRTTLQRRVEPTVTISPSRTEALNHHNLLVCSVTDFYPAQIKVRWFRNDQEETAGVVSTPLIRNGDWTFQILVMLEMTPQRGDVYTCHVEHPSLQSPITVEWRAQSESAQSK
T1 peptide: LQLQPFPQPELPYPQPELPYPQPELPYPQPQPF

T2: HLA-DQ2.5 on Ba/F3 cells (not in the form of a complex with a linked peptide) (human, UniProt P01909 24-254; P01920 33-261)
T2 construct: also called Ba/F3-HLA-DQ2.5; No peptide
T2 MHC II alpha: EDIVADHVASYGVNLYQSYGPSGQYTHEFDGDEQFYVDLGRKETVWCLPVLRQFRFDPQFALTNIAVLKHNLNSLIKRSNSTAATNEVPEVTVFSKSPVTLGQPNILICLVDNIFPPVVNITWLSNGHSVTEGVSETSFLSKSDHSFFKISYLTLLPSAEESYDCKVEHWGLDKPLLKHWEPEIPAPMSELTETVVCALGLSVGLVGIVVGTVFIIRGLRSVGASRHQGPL
T2 MHC II beta: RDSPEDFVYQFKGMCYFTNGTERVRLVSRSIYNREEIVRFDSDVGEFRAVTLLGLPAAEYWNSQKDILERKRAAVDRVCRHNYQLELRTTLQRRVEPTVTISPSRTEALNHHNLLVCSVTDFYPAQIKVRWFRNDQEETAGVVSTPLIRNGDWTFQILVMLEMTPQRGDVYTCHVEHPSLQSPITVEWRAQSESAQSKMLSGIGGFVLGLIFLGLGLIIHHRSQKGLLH

T3: HLA-DQ2.5 on HLA-DQ2.5 positive PBMC-B cells (human, UniProt P01909 24-254; P01920 33-261)
T3 construct: also called DQ2.5 + PBMC; HLA-DQ2.5+PBMC B cell
T3 MHC II alpha: T2 MHC II alpha
T3 MHC II beta: T2 MHC II beta

B1: DQN0344xx (antibody, human IgG1, kappa, V domains shown)
VH: QSLEESGGGLVKPGGTLTLTCTASGFSFSSSYWMCWVRQAPGKGLEWVACVYGGSDTTYYASWTKGRFTISKGSSTTVALQVTSLTAADTATYFCARDPLNYYYYGELNLWGPGTLVTVSS
VL: AVVLTQTASPVSAAVGGTVTIRCQATENIYSGLAWYQQKPGQPPKVLIYYVSTLASGVPSRFKGSGSGTEYTLTISGVQCDDAATYYCQTYHDISNVTFGGGTKVEIKR
notes: also called DQN0344Hx; DQN0344Lx
B2: DQN0356bb (antibody, human IgG1, kappa, V domains shown)
VH: QEQLVESGGGLVKPEGSLTLTCTASGFSFSSDYSVCWVRQAPGKGLEWIGCIYTGSDITYYASWAKGRFTISKTSSTTVTLQMTSLTAADTATWFCARSWNGYGGYADLWGPGTLVTVSS
VL: AYDMAQTPASVEVAVGGTVTIKCQASQSIDNYLAWYQQKPGQPPKLLIYWASTLASGVSSRFKGSGSGTQFSLTISDLECADAATYYCQQYYSNSNVVNTFGGGTKVEIKR
notes: also called DQN0356Hb; DQN0356Lb
B3: DQN0370hh (antibody, human IgG1, kappa, V domains shown)
VH: QSLEESGGGLVKPGGPLTLTCTASGFSFSSAYYMCWVRQAPGKGLEWIACIYVGSGSTYYTSWAKGRFTISKVSSTTMTLQMTSLTAADTATYFCARDPLIYYYYGELNLWGPGTLVTVSS
VL: AVVLTQTASPVSAPVGGTVTIKCQASEDIYSNLAWYQQKPGQRPKVLIYSASTLASGVSSRFKGSRSGTEYTLSITDLGCADAATYYCQAYYDIGGVTFGGGTKVEIKR
notes: also called DQN0370Lh
B4: DQN0333hh (antibody, human IgG1, kappa, V domains shown)
VH: QSVEESGGRLVMPGGSLTLTCTASGFSLSSYYMNWVRQAPGKGLEWIGVIYSTDITDYATWATGRFTISKTSTTVDLKMTSLTAADTATYFCARELSPTTSGYIAYLWGPGTLVTVSS
VL: AYDMTQTPASVEVAVGGTVTIKCQASQSISSYLAWYQQKPGQPPKLLIYSASTLASGVPSRFKGSGSGTQFTLTVIDVQCDDAATYYCQQTYSGKNVINTFGGGTKVEIKR
notes: also called DQN0333Lh
B5: DQN0303hh (antibody, human IgG1, kappa, V domains shown)
VH: QQHLEESGGGLVKPGGTLTLTCTASGIDFSSYYYMCWVRQAPGKGLEWIACIYTGDGSTYYASWVNGRFTISRSTSLNTVTLQLNGLAAADTATYFCARSYGASSAIGYFNLWGPGTLVTVSS
VL: DVVMTQTPSSKSAAVGGTVTIKCQASQNIYSNLAWYQQKPGQRPKLLIYEASTLASGVPSRFRGSGSGTEFTLTISDLECDDAATYYCQNYYYTSSNDFYTFGGGTKVEIKR
notes: also called DQN0303Lh
B6: DQN0235ee (antibody, human IgG1, kappa, V domains shown)
VH: QQQLEESGGGLVKPGGTLTLTCKAGIDFSTYYYMCWVRQAPGKRPEWIACIFDGDGSTYYASWVNGRFTISKASSTTVTLRMTSLTAADTATYFCARSAGGSSSFGYFNLWGPGTLVTVSS
VL: AYDMTQTPSSVSAAVGGTVTIKCQASQSISSSYLAWYHQKPGQSPKLLIYSASTLASGVPSRFKGSGSGTEFTLTISDLACADAATYYCQSYYYFSSNAWHTFGGGTKVEIKR
notes: also called DQN0235He; DQN0235Le
B7: DQN0271hh (antibody, human IgG1, kappa, V domains shown)
VH: QSLEESGGGLVKPGASLTLTCKASGFSFSSGYYMCWVRQAPGKGLEWIACIYAGSPDLTYYATWAKGRLTISTTSSTTVTLQLTSLTAADTATYFCARDPGNWGGYDDVRLWGPGTLVTVSS
VL: AQVLTQTPSPVSAAVGGTVTISCQSSQSIYSNYLSWFQQKTGQPPKLLIYRASTLASGVPSRFKGSGSGTEFTLTISGVECDDAATYYCQGYYSGAIWTFGGGTKVEIKR
notes: also called DQN0271Lh
B8: DQN0223hh (antibody, human IgG1, kappa, V domains shown)
VH: QQQLEESGGGLVKPGGTLTLTCKASRIDFSTYYYICWVRQSPWKGLEWIACIYSGDGYTYYPSWAKGRFSISKTSSTTVTLQVTSLTAADTATYFCARSYGGSSASAYFTLWGPGTQVTVSS
VL: AVVLTQTASPVSAPVGGTVTIKCQASQSIGSNLGWYQQKPGQPPKLLIYGASALASGVPSRFKGSGSGTQFTLTINDLECADAATYYCQGYYYSSSAEWHSFGGGTKVEIKR
notes: also called DQN0223Lh

Columns and labels:
[1] = target: T4, HLA-DQ2.5/33mer gliadin peptide complex on Ba/F3 cells (human; wheat); test: cell-based or functional assay
[2] = target: T5, HLA-DQ2.5/alpha 1b gliadin peptide complex on Ba/F3 cells (human; wheat); test: FACS
T5 construct: also called Ba/F3-HLA-DQ2.5/alpha 1b gliadin peptide

[3] = target: T6, HLA-DQ2.5/omega 1 gliadin peptide complex on Ba/F3 cells (human; wheat); test: FACS
T6 construct: also called Ba/F3-HLA-DQ2.5/omega 1 gliadin peptide

[4] = target: T7, HLA-DQ2.5/alpha 2 gliadin peptide complex on Ba/F3 cells (human; wheat); test: FACS
T7 construct: also called Ba/F3-HLA-DQ2.5/alpha 2 gliadin peptide

[5] = target: T8, HLA-DQ2.5/omega 2 gliadin peptide complex on Ba/F3 cells (human; wheat); test: FACS
T8 construct: also called Ba/F3-HLA-DQ2.5/omega 2 gliadin peptide

[6] = target: T9, HLA-DQ2.5/alpha 1 gliadin peptide complex on Ba/F3 cells (human; wheat); test: FACS
T9 construct: also called Ba/F3-HLA-DQ2.5/alpha 1 gliadin peptide

[7] = target: T10, HLA-DQ2.5/secalin 2 peptide complex on Ba/F3 cells (human; rye); test: FACS
T10 construct: also called Ba/F3-HLA-DQ2.5/secalin 2 peptide

[8] = target: T11, HLA-DQ2.5/secalin 1 peptide complex on Ba/F3 cells (human; rye); test: FACS
T11 construct: also called Ba/F3-HLA-DQ2.5/secalin 1 peptide

[9] = target: T4, HLA-DQ2.5/33mer gliadin peptide complex …; test: FACS
[10] = target: T12, HLA-DQ2.5/CLIP peptide complex on Ba/F3 cells (human); test: FACS
T12 construct: also called Ba/F3-HLA-DQ2.5/CLIP peptide

[11] = target: T1, recombinant HLA-DQ2.5/33mer gliadin …; test: SPR, Ab captured, 37 C, pH 7.4
[12] = target: T2, HLA-DQ2.5 on Ba/F3 cells (not in the …); test: FACS
[13] = target: T3, HLA-DQ2.5 on HLA-DQ2.5 positive PBMC-B …; test: FACS

Row | Binder | IC50 (read off the curve) [1] | FIG. 30 FACS value (IC17=0, DQN0139bb=100) [2] | FIG. 30 FACS value (IC17=0, DQN0139bb=100) [3] | FIG. 30 FACS value (IC17=0, DQN0139bb=100) [4] | FIG. 30 FACS value (IC17=0, DQN0139bb=100) [5] | FIG. 30 FACS value (IC17=0, DQN0139bb=100) [6] | FIG. 30 FACS value (IC17=0, DQN0139bb=100) [7] | FIG. 30 FACS value (IC17=0, DQN0139bb=100) [8] | FIG. 30 FACS value (IC17=0, DQN0139bb=100) [9] | FIG. 30 FACS value (IC17=0, DQN0139bb=100) [10] | Kd [11] | FIG. 30 FACS value (IC17=0, DQN0139bb=100) [12] | FIG. 30 FACS value (IC17=0, DQN0139bb=100) [13]
1 | B1 | ~0.3 µg/mL | 75.3 | 68.8 | 81.9 | 3.7 | 89.7 | 60.6 | 73.9 | 106 |  |  |  | 
2 | B2 |  | 88 | 76 | 85.6 | 68.8 | 94.9 | 77.8 | 74.5 | 91.1 | 98.3 |  |  | 
3 | B3 | ~0.3 µg/mL | 79.2 | 73.7 | 83.7 | 65.8 | 91.2 | 68.1 | 79.2 | 107 | 1 | 4.47 nM |  | 
4 | B4 |  | 108 | 106 | 118 | 128 |  | 106 | 110 | 106 | 116 |  |  | 
5 | B5 |  | 41.5 | 56.2 | 62.6 | 91.7 | 51.4 | 59.4 | 64.5 | 72.8 | 80 |  |  | 
6 | B6 |  |  | 75.2 | 81.3 | 78.8 | 52.3 | 71.1 | 73.4 | 70.1 | 82 |  |  | 
7 | B7 | ~0.3 µg/mL | 80.5 | 79.3 | 83 | 68.9 | 91.2 | 70.2 | 65.3 | 106 | 3.8 | 6.07 nM | 0 | 0
8 | B8 |  | 36 | 46 | 46.8 | 59 | 27.9 | 48.4 | 47.6 | 59.5 | 60.2 |  |  | 
